The results in this text go back to patent US5474766, “Methods and compositions for inhibition of hepatic clearance of tissue-type plasminogen activator” (Washington University, dated 1995).

For experiment [1], the target named is low density lipoprotein receptor-related protein (LRP) on rat MH1C1 hepatoma cells (rat). In words: competition of 125I-t-PA binding to MH1C1 cells by recombinant rat 39 kDa protein.
Experiment [2] has the same target. As to the kind of experiment: competition of 125I-t-PA binding to MH1C1 cells.
For experiment [3] the target is unchanged. In words: saturation binding to MH1C1 cells, Scatchard; simultaneous assays, n=4.
Experiment [4] shares this target. As to the kind of experiment: saturation binding to MH1C1 cells, Scatchard; summary of 7 experiments.
Experiment [5] has the same target. In words: saturation binding to MH1C1 cells pre-incubated with 0.1% saponin, Scatchard; n=3 (ligand label as printed, doubtful).
The target is the same in experiment [6]. In words: competition of 4 nM 125I-t-PA binding to MH1C1 cells, fragment eluted from PVDF.
For experiment [7], the target named is low density lipoprotein receptor-related protein (LRP) on human hepatoma HepG2 cells (human) (UniProt Q07954).
For experiment [8] the target is unchanged. The source holds these as a separate data set.
The target in experiment [9] is low density lipoprotein receptor-related protein (LRP) on rat MH1C1 hepatoma cells (rat).
The target is the same in experiment [10]. In words: saturation binding to untreated MH1C1 cells, Scatchard; n=3.
Experiment [11] has the same target. As to the kind of experiment: competition of 3 nM 125I-t-PA binding to MH1C1 cells at 4 C.
For experiment [12], the target named is T1, low density lipoprotein receptor-related protein (LRP) on human hepatoma HepG2 cells (human, UniProt Q07954). In words: saturation binding to HepG2 cells at 4 C, Scatchard; one experiment. The protocol: (§1) Cells were seeded into multiwell (12 wells/plate) disposable plastic tissue culture plates 2 days prior to assay. Ligand binding buffer for t-PA was composed of phosphate-buffered saline (PBS) supplemented with 0.2 mM CaCl_2 and 10 mM EACA, whereas PBSc (PBS containing 1 mM CaCl_2 and 0.5 mM MgCl_2) was used for 39 kDa protein binding. Binding experiments were performed at 4° C. to prevent possible concomitant internalization during the binding interval. Cell monolayers were washed three times on ice with prechilled binding buffer. Binding was initiated by adding 0.5 ml binding buffer containing selected concentrations of ^125I-labelled ligand in the absence or presence of an excess unlabelled ligand (1 μM). After incubation at 4° C. for 1.5 hours, buffer containing unbound ligand was removed. Cells were then washed three times with binding buffer and lysed in 0.0625M Tris-HCl, pH 6.8, containing 0.2% (w/v) SDS and 10% (v/v) glycerol ("low-SDS lysis buffer"). Radioactivity of cell lysates was quantified by γ scintillation spectrometry. For some experiments, cell lysates were further analyzed by SDS-PAGE and autoradiography as described below. Total binding was determined in the presence of ^125I-labelled ligand alone. Nonspecific binding was determined in the presence of excess unlabelled ligand. Specific ligand binding was defined as the difference between total and nonspecific binding. […]

For experiment [13], the target named is low density lipoprotein receptor-related protein (LRP) on rat MH1C1 hepatoma cells (rat). As to the kind of experiment: saturation binding to MH1C1 cells, Scatchard; summary of 10 experiments.
In experiment [14] the target is T1, low density lipoprotein …. As to the kind of experiment: saturation binding to HepG2 cells at 4 C, Scatchard; five experiments. As for the experimental part:
as §1

Experiment [15] has as its target low density lipoprotein receptor-related protein (LRP) on rat MH1C1 hepatoma cells (rat). In words: competition of 4 nM 125I-t-PA binding to MH1C1 cells, protein eluted from PVDF.
For experiment [16] the target is unchanged. As to the kind of experiment: saturation binding of 125I-ligand to MH1C1 cells at 4 C, Scatchard analysis (one experiment, FIG. 1A).
For experiment [17] the target is unchanged. As to the kind of experiment: competition of 4 nM 125I-t-PA binding to MH1C1 cells; buffer alone exhibited 20-30% inhibition.

For the molecule “rat 39 kDa protein (from UniProt Q99068) (ligand)”, in experiment [1], the inhibition constant (Ki) was 0.5 nM.

Molecule “tissue-type plasminogen activator (t-PA) (from UniProt P00750) (enzyme)” yielded a Ki in experiment [2] of 8 nM. Besides, the results for the Kd in experiment [3], in [4] and in [5] were 5.6 nM, 4.9 nM and 9.1 nM, respectively.

B1: 28 kDa C-terminal fragment of the 39 kDa protein (ligand)
chain: PRLEKLWHKAKTSGKFSGEELDKLWREFLHHKEKVHEYNVLLETLSRTEEIHENVISPSDLSDIKGSVLHSRHTELKEKLRSINQGLDRLRRVSHQGYSTEAEFEEPRVIDLWDLAQSANLTDKELEAFREELKHFEAKIEKHNHYQKQLEIAHEKLRHAESVGDGERVSRSREKHALLEGRTKELGYTVKKHLQDLSGRISRARHNEL
In [6], B1 yielded an IC50 of 4 nM and a concentration at 90% inhibition of 16 nM.

B2: 39 kDa protein (ligand)
chain: YSREKNQPKPSPKRESGEEFRMEKLNQLWEKAQRLHLPPVRLAELHADLKIQERDELAWKKLKLDGLDEDGEKEARLIRNLNVILAKYGLDGKKDARQVTSNSLSGTQEDGLDDPRLEKLWHKAKTSGKFSGEELDKLWREFLHHKEKVHEYNVLLETLSRTEEIHENVISPSDLSDIKGSVLHSRHTELKEKLRSINQGLDRLRRVSHQGYSTEAEFEEPRVIDLWDLAQSANLTDKELEAFREELKHFEAKIEKHNHYQKQLEIAHEKLRHAESVGDGERVSRSREKHALLEGRTKELGYTVKKHLQDLSGRISRARHNEL
As to B2, the specific degradation of ^125 I-t-PA by HepG2 cells (TCA-soluble radioactivity) in experiment [7] worked out at 75%. In experiment [8], the specific ^125 I-t-PA uptake by HepG2 cells (cell-associated radioactivity) was found to be 70%. The molecule further displayed a rate of ligand uptake and degradation at 37° C. (fmol/10^6 cells/minute) in experiment [9] of 52. In addition, the Kd in [10] stood at 2.7 nM; in experiment [12], 4.9 nM; in experiment [3], 3.5 nM; in experiment [13] it was 3.3 nM; in experiment [14], 5.1 nM; in [16], 3.2 nM. In addition, the IC50 in [11] is less than 1 nM; in experiment [15] it was 1 nM. In addition, in experiment [15], the concentration at 90% inhibition was in the range of 8 to 10 nM.

B3: 20 kDa N-terminal fragment of the 39 kDa protein (ligand)
chain: YSREKNQPKPSPKRESGEEFRMEKLNQLWEKAQRLHLPPVRLAELHADLKIQERDELAWKKLKLDGLDEDGEKEARLIRNLNVILAKYGLDGKKDARQVTSNSLSGTQEDGLDD
In turn, B3 returned a percent inhibition at 16 nM in experiment [17] of 10%.
